Reference: patent US20210284725A1 (Genentech, published 2021)
Blank lines part the entries; values can stand above or below the binder they belong to.

Tests used:
cyno IL-33 = molecular target: T1, cyno IL-33 (cynomolgus monkey, UniProt A0A2K5W3I1 112-269); test: cell-based or functional assay
T1 sequence: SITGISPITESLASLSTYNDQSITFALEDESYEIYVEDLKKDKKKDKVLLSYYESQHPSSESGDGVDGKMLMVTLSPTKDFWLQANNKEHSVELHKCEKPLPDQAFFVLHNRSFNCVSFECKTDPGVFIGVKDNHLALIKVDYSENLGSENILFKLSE

human IL-33 [1] = molecular target: T2, human IL-33 (human, UniProt O95760 112-270, limits assumed); test: cell-based or functional assay
T2 sequence (looked up): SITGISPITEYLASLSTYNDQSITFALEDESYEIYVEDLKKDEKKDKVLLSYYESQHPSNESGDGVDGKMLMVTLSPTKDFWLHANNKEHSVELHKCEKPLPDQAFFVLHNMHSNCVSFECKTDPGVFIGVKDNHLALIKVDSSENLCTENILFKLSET

human IL-33 (His-tagged) [2] = molecular target: T3, human IL-33 (His-tagged) (human, UniProt O95760 112-270, limits assumed); test: SPR Biacore T200, antibody captured on anti-rat Fc, His-tagged IL-33 analyte, 25 C, 1:1 Langmuir
T3 construct: not shown: His tag
T3 sequence (looked up): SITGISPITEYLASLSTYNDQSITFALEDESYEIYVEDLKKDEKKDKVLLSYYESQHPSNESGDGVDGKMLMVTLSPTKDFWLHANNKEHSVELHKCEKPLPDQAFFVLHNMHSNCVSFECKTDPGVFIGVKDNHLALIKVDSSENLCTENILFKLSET
Procedure: (§1) The binding kinetics of top anti-IL-33 antibodies were measured using SPR on a BIACORE® T200 instrument (GE Healthcare). A CM5 Series S sensorchip was coated with anti-rat Fc (Jackson) to create a capture surface. Antibody binding was measured to human, cyno, rat, mouse and oxidized IL-33 (His-tagged) using a concentration series starting with 50 nM with 1:3 dilutions. Sensorgrams for binding of cytokine were recorded using an injection time of 2 min with a flow rate of 30 μl/min, at a temperature of 25° C., and with a running buffer of 10 mM HEPES, pH 7.4, 150 mM NaCl, 3 mM EDTA, and 0.005% TWEEN®20. After injection, disassociation of the IL-33 from the antibody was monitored for 10 min in running buffer. The surface was regenerated between binding cycles with a 30μ injection of 10 mM glycine HCl pH 1.7. After subtraction of a blank which contained running buffer only, sensorgrams observed for cytokine binding to anti-IL-33 antibody were analyzed using a 1:1 Langmuir binding model with software supplied by the manufacturer to calculate the kinetics and binding constants.

cyno IL-33 (His-tagged) [3] = molecular target: T4, cyno IL-33 (His-tagged) (cynomolgus monkey, UniProt A0A2K5W3I1 112-269); test: as above
T4 construct: not shown: His tag
T4 sequence: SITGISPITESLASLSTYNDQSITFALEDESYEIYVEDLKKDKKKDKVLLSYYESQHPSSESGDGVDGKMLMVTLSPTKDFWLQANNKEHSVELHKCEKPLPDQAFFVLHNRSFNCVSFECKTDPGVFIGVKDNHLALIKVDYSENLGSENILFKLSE
Procedure: as §1

mouse IL-33 (His-tagged) = molecular target: T5, mouse IL-33 (His-tagged) (mouse, UniProt Q8BVZ5 109-266); test: as above
T5 construct: also called murine IL-33; not shown: His tag
T5 sequence (looked up): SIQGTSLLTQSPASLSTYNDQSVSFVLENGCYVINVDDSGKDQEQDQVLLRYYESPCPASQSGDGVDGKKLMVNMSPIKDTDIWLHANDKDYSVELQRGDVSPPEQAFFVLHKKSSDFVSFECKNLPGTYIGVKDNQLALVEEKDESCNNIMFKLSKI
Procedure: as §1

rat IL-33 (His-tagged) = molecular target: T6, rat IL-33 (His-tagged) (rat, UniProt Q66H70 109-264, limits assumed); test: as above
T6 construct: not shown: His tag
T6 sequence (looked up): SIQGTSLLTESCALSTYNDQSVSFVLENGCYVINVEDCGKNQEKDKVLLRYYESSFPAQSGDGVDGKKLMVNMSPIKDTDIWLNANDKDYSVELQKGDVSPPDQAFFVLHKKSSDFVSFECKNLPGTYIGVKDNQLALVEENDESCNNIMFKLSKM
Procedure: as §1

human IL-33 [4] = molecular target: T2, human IL-33; test: cell-based or functional assay; remark: listed apart in the source
human IL-33 (His-tagged) [5] = molecular target: T3, human IL-33 (His-tagged); test: SPR Biacore T200, IgG captured on protein A chip, His-tagged human IL-33 analyte, 25 C, n=2; column head prints 'KD (nM)' but the E-notation cells are in M, unit corrected to M
Procedure: A protein A sensorchip (GE Healthcare) was used following manufacturer provided protocols to capture humanized anti-IL-33 antibodies using a BIACORE® T200 instrument (GE). Antibody binding was measured to human IL-33 (His-tagged) using multi-cycle kinetics. Sensorgrams for binding of IL-33 were recorded using an injection time of 2 min with a flow rate of 30 μl/min, at a temperature of 25° C., and with a running buffer of 10 mM HEPES, pH 7.4, 150 mM NaCl, 3 mM EDTA, and 0.005% TWEEN620. After injection, disassociation of IL-33 from the antibody was monitored for 10 min in running buffer. The surface was regenerated between binding cycles with a 30 μl injection of 10 mM Glycine HCl pH 1.5. After subtraction of a blank which contained running buffer only, sensorgrams observed for cytokine binding to anti-IL-33 antibody were analyzed using a 1:1 Langmuir binding model with software supplied by the manufacturer to calculate the kinetics and binding constants.

human IL-33 (His-tagged) [6] = molecular target: T3, human IL-33 (His-tagged); test: SPR Biacore 8k, Fab amine-coupled to CM5 chip, His-tagged IL-33 analyte, 25 C, 1:1 Langmuir
Procedure: (§2) The binding kinetics of the 1E1v8 Fab were measured using SPR on a BIACORE® 8k instrument (GE Healthcare). 1E1v8 Fab was directly immobilized on 4 different flow cells of a CM5 Series S sensorchip at low density using amine coupling. Antibody fragment binding was measured to human and cyno IL-33 (His-tagged) using a concentration series starting with 50 nM with 1:3 dilutions. Sensorgrams for binding of IL-33 were recorded using an injection time of 2 min with a flow rate of 100 μl/min, at a temperature of 25° C. or 35° C., and with a running buffer of 10 mM HEPES, pH 7.4, 150 mM NaCl, 3 mM EDTA, and 0.005% TWEEN®20. After injection, disassociation of the IL-33 from the antibody was monitored for 30 min in running buffer. The surface was regenerated between binding cycles with a 30 μl injection of 10 mM glycine HCl pH 1.7. After subtraction of a blank which contained running buffer only, sensorgrams observed for cytokine binding to anti-IL-33 antibody were analyzed using a 1:1 Langmuir binding model with software supplied by the manufacturer to calculate the kinetics and binding constants.

cyno IL-33 (His-tagged) [7] = molecular target: T4, cyno IL-33 (His-tagged); test: as above
Procedure: as §2

human IL-33 (His-tagged) [8] = molecular target: T3, human IL-33 (His-tagged); test: SPR Biacore 8k, Fab amine-coupled to CM5 chip, His-tagged IL-33 analyte, 35 C, 1:1 Langmuir
Procedure: as §2

cyno IL-33 (His-tagged) [9] = molecular target: T4, cyno IL-33 (His-tagged); test: as above
Procedure: as §2

- IC50 (M), IL-33 neutralization activity, HEK-BLUE IL-33 cells (SEAP reporter), cyno IL-33 at 300 pM (cyno IL-33): 1.6e-10 M
- IC50 (M), IL-33 neutralization activity, HEK-BLUE IL-33 cells (SEAP reporter), human IL-33 at 160 pM (human IL-33 [1]): 3.6e-11 M
- Kd (human IL-33 (His-tagged) [2]): 0.021 nM
- koff (human IL-33 (His-tagged) [2]): 2.28e-05 s⁻¹
- kon (human IL-33 (His-tagged) [2]): 1.08e+06 M⁻¹ s⁻¹
- Kd (cyno IL-33 (His-tagged) [3]): 0.0392 nM
- koff (cyno IL-33 (His-tagged) [3]): 2.24e-05 s⁻¹
- kon (cyno IL-33 (His-tagged) [3]): 570000 M⁻¹ s⁻¹
- Kd (mouse IL-33 (His-tagged)): 37.4 nM
- koff (mouse IL-33 (His-tagged)): 0.00213 s⁻¹
- kon (mouse IL-33 (His-tagged)): 56800 M⁻¹ s⁻¹
- Kd (rat IL-33 (His-tagged)): 1.6 nM
- koff (rat IL-33 (His-tagged)): 0.000219 s⁻¹
- kon (rat IL-33 (His-tagged)): 140000 M⁻¹ s⁻¹
B1: rat anti-human IL-33 hybridoma antibody 1E1 (antibody, V domains shown)
VH: EVQLVESGGGLVQPGTSLKLSCLASGFTFNNYWMTWIRQAPGKGLEWIASITYTGGGTYYPDSVKGRFTISRDDAKSTLYLQMNSLRSEDTATYYCTRANYYYNTYGGFPYWGQGTLVTVSS
VL: DIQMTQSPASLSASLGETVSIECLASEGFSNDLAWYQQKSGKSPQLLIYAASRLQDGVPSRFSGSGSGTRFSLKISGMQPEDEADYFCQQGSKYPLTFGSGTKLEIK
notes: Purified rat hybridoma IgG; also called clone 1E1; hybridoma derived clone 1E1

- IC50 (M), IL-33 neutralization activity, HEK-BLUE IL-33 cells, human IL-33 at 160 pM (human IL-33 [4]): 2.9e-11 M
- Kd (human IL-33 (His-tagged) [5]): 0.148 nM
B2: ch1E1 (antibody, V domains shown)
VH: EVQLVESGGGLVQPGTSLKLSCLASGFTFNNYWMTWIRQAPGKGLEWIASITYTGGGTYYPDSVKGRFTISRDDAKSTLYLQMNSLRSEDTATYYCTRANYYYNTYGGFPYWGQGTLVTVSS
VL: DIQMTQSPASLSASLGETVSIECLASEGFSNDLAWYQQKSGKSPQLLIYAASRLQDGVPSRFSGSGSGTRFSLKISGMQPEDEADYFCQQGSKYPLTFGSGTKLEIKR

- IC50 (M), IL-33 neutralization activity, HEK-BLUE IL-33 cells, human IL-33 at 160 pM (human IL-33 [4]): 2.98e-11 M
- Kd (human IL-33 (His-tagged) [5]): 0.14 nM
B3: 1E1v13 (antibody, human IgG1, V domains shown)
VH: EVQLVESGGGLVQPGGSLRLSCAASGFTFNNYWMTWVRQAPGKGLEWIASITYTGGGTYYPDSVKGRFTISRDDAKSSLYLQMNSLRAEDTAVYYCTRANYYYNTYGGFPYWGQGTLVTVSS
VL: DIQMTQSPSSLSASVGDRVTITCLASEGFSNDLAWYQQKPGKAPKSLIYAASRLQDGVPSRFSGSGSGTDFTLTISSLQPEDFATYFCQQGSKYPLTFGGGTKVEIK
notes: Humanized 1E1 variant, human IgG1 backbone, expressed in Expi293F

- IC50 (M), IL-33 neutralization activity, HEK-BLUE IL-33 cells, human IL-33 at 160 pM (human IL-33 [4]): 3.44e-11 M
- Kd (human IL-33 (His-tagged) [5]): 0.128 nM
B4: 1E1v20 (antibody, human IgG1, V domains shown)
VH: EVQLVESGGGLVQPGGSLRLSCAASGFTFNNYWMTWVRQAPGKGLEWVASITYTGGGTYYPDSVKGRFTISRDDAKSSLYLQMNSLRAEDTAVYYCTRANYYYNTYGGFPYWGQGTLVTVSS
VL: DIQMTQSPSSLSASVGDRVTITCLASEGFSNDLAWYQQKPGKAPKSLIYAASRLQDGVPSRFSGSGSGTDFTLTISSLQPEDFATYYCQQGSKYPLTFGGGTKVEIK
notes: as for B3

- IC50 (M), IL-33 neutralization activity, HEK-BLUE IL-33 cells, human IL-33 at 160 pM (human IL-33 [4]): 3.1e-11 M
- Kd (human IL-33 (His-tagged) [5]): 0.155 nM
B5: 1E1v21 (antibody, human IgG1, V domains shown)
VH: EVQLVESGGGLVQPGGSLRLSCAASGFTFNNYWMTWVRQAPGKGLEWVASITYTGGGTYYPDSVKGRFTISRDDAKNSLYLQMNSLRAEDTAVYYCTRANYYYNTYGGFPYWGQGTLVTVSS
VL: DIQMTQSPSSLSASVGDRVTITCLASEGFSNDLAWYQQKPGKAPKSLIYAASRLQDGVPSRFSGSGSGTDFTLTISSLQPEDFATYYCQQGSKYPLTFGGGTKVEIK
notes: as for B3

- Kd (human IL-33 (His-tagged) [6]): 0.0147 nM
- koff (human IL-33 (His-tagged) [6]): 9.99e-06 s⁻¹
- kon (human IL-33 (His-tagged) [6]): 684000 M⁻¹ s⁻¹
- Kd (cyno IL-33 (His-tagged) [7]): 0.0223 nM
- koff (cyno IL-33 (His-tagged) [7]): 7.85e-06 s⁻¹
- kon (cyno IL-33 (His-tagged) [7]): 354000 M⁻¹ s⁻¹
- Kd (human IL-33 (His-tagged) [8]): 0.0148 nM
- koff (human IL-33 (His-tagged) [8]): 1.26e-05 s⁻¹
- kon (human IL-33 (His-tagged) [8]): 858000 M⁻¹ s⁻¹
- Kd (cyno IL-33 (His-tagged) [9]): 0.0345 nM
- koff (cyno IL-33 (His-tagged) [9]): 1.82e-05 s⁻¹
- kon (cyno IL-33 (His-tagged) [9]): 527000 M⁻¹ s⁻¹
B6: 1E1v8 Fab (Fab, V domains shown)
VH: EVQLVESGGGLVQPGGSLRLSCAASGFTFNNYWMTWIRQAPGKGLEWVASITYTGGGTYYPDSVKGRFTISRDDAKSSLYLQMNSLRAEDTAVYYCTRANYYYNTYGGFPYWGQGTLVTVSS
VL: DIQMTQSPSSLSASVGDRVTITCLASEGFSNDLAWYQQKPGKSPKLLIYAASRLQDGVPSRFSGSGSGTDFTLTISSLQPEDFATYFCQQGSKYPLTFGGGTKVEIK
notes: also called 1E1v8 human Fab; anti-IL-33 1E1v8 Fab

- IC50 (M), IL-33 neutralization activity, HEK-BLUE IL-33 cells, human IL-33 at 160 pM (human IL-33 [4]): 3.19e-11 M
- Kd (human IL-33 (His-tagged) [5]): 0.132 nM
B7: 1E1v19 (antibody, human IgG1, V domains shown)
VH: EVQLVESGGGLVQPGGSLRLSCAASGFTFNNYWMTWIRQAPGKGLEWIASITYTGGGTYYPDSVKGRFTISRDDAKSSLYLQMNSLRAEDTAVYYCTRANYYYNTYGGFPYWGQGTLVTVSS
VL: DIQMTQSPSSLSASVGDRVTITCLASEGFSNDLAWYQQKPGKAPKSLIYAASRLQDGVPSRFSGSGSGTDFTLTISSLQPEDFATYYCQQGSKYPLTFGGGTKVEIK
notes: as for B3
